Results as given in US20210388087A1 (Chugai, published 2021).
Numbering of substitutions follows the chain as printed. Names may count otherwise. Blank lines part the entries; values can stand above or below the binder they belong to.

Molecular target: T1, Human CD3eg linker (human)
T1 construct: Single chain: epsilon and gamma subunits of human CD3 joined by a 29-mer linker, Flag-tag at the C-terminus; also called recombinant human CD3
T1 chain: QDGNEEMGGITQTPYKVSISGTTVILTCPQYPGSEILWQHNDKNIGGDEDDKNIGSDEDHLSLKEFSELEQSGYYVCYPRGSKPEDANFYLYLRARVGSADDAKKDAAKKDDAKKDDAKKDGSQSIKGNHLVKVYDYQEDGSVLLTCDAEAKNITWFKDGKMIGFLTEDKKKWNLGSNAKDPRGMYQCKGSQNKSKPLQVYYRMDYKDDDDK
Experiment: Biacore SPR, vs template H183/L072

fold change of affinity: 0.6 fold
B1: H183/L072 VH G26M (antibody, name in Kabat numbering, V domains shown)
VH: QVQLVESGGGLVQPGRSLRLSCAASMFTFSNAWMHWVRQAPGKGLEWVAQIKDKGNAYAAYYAPSVKGRFTISRDDSKNSIYLQMNSLKTEDTAVYYCHYVHYASASTVLPAFGVDAWGQGTTVTVSS
VL: DIVMTQSPLSLPVTPGEPASISCQASQELVHMNRNTYLHWYQQKPGQAPRLLIYKVSNRFPGVPDRFSGSGSGTDFTLKISRVEAEDVGVYYCAQGTSVPFTFGQGTKLEIK

fold change of affinity: 1.5 fold
B2: H183/L072 VH G52cV (antibody, name in Kabat numbering, V domains shown)
VH: B1 VH with M26G, G55V
VL: B1 VL

fold change of affinity: 1.2 fold
B3: H183/L072 VH G52cE (antibody, name in Kabat numbering, V domains shown)
VH: B1 VH with M26G, G55E
VL: B1 VL

fold change of affinity: 0.9 fold
B4: H183/L072 VH G52cT (antibody, name in Kabat numbering, V domains shown)
VH: B1 VH with M26G, G55T
VL: B1 VL

fold change of affinity: 1.2 fold
B5: H183/L072 VH G52cN (antibody, name in Kabat numbering, V domains shown)
VH: B1 VH with M26G, G55N
VL: B1 VL

fold change of affinity: 1 fold
B6: H183/L072 VH G65I (antibody, name in Kabat numbering, V domains shown)
VH: B1 VH with M26G, G68I
VL: B1 VL

fold change of affinity: 1.1 fold
B7: H183/L072 VH G65A (antibody, name in Kabat numbering, V domains shown)
VH: B1 VH with M26G, G68A
VL: B1 VL

fold change of affinity: 4.8 fold
B8: H183/L072 VH G100hA (antibody, name in Kabat numbering, V domains shown)
VH: B1 VH with M26G, G114A
VL: B1 VL

fold change of affinity: 0.5 fold
B9: H183/L072 VH G26R (antibody, name in Kabat numbering, V domains shown)
VH: B1 VH with M26R
VL: B1 VL

fold change of affinity: 0.9 fold
B10: H183/L072 VH G65M (antibody, name in Kabat numbering, V domains shown)
VH: B1 VH with M26G, G68M
VL: B1 VL

fold change of affinity: 0.4 fold
B11: H183/L072 VH G26T (antibody, name in Kabat numbering, V domains shown)
VH: B1 VH with M26T
VL: B1 VL

fold change of affinity: 1 fold
B12: H183/L072 VH G52cS (antibody, name in Kabat numbering, V domains shown)
VH: B1 VH with M26G, G55S
VL: B1 VL

fold change of affinity: 0.8 fold
B13: H183/L072 VH G100hL (antibody, name in Kabat numbering, V domains shown)
VH: B1 VH with M26G, G114L
VL: B1 VL

fold change of affinity: 0 fold
B14: H183/L072 VH H35I (antibody, name in Kabat numbering, V domains shown)
VH: B1 VH with M26G, H35I
VL: B1 VL

fold change of affinity: 0 fold
B15: H183/L072 VH H35G (antibody, name in Kabat numbering, V domains shown)
VH: B1 VH with M26G, H35G
VL: B1 VL

fold change of affinity: 1.4 fold
B16: H183/L072 VH G52cR (antibody, name in Kabat numbering, V domains shown)
VH: B1 VH with M26G, G55R
VL: B1 VL

fold change of affinity: 4.2 fold
B17: H183/L072 VH G100hM (antibody, name in Kabat numbering, V domains shown)
VH: B1 VH with M26G, G114M
VL: B1 VL

fold change of affinity: 0.4 fold
B18: H183/L072 VH G26N (antibody, name in Kabat numbering, V domains shown)
VH: B1 VH with M26N
VL: B1 VL

fold change of affinity: 1.6 fold
B19: H183/L072 VH G52cK (antibody, name in Kabat numbering, V domains shown)
VH: B1 VH with M26G, G55K
VL: B1 VL

fold change of affinity: 0.9 fold
B20: H183/L072 VH G65P (antibody, name in Kabat numbering, V domains shown)
VH: B1 VH with M26G, G68P
VL: B1 VL

fold change of affinity: 1.1 fold
B21: H183/L072 VH G52cD (antibody, name in Kabat numbering, V domains shown)
VH: B1 VH with M26G, G55D
VL: B1 VL

fold change of affinity: 1.3 fold
B22: H183/L072 VH G52cP (antibody, name in Kabat numbering, V domains shown)
VH: B1 VH with M26G, G55P
VL: B1 VL

fold change of affinity: 1.5 fold
B23: H183/L072 VH G52cL (antibody, name in Kabat numbering, V domains shown)
VH: B1 VH with M26G, G55L
VL: B1 VL

fold change of affinity: 0 fold
B24: H183/L072 VH H35F (antibody, name in Kabat numbering, V domains shown)
VH: B1 VH with M26G, H35F
VL: B1 VL

fold change of affinity: 1.5 fold
B25: H183/L072 VH G52cY (antibody, name in Kabat numbering, V domains shown)
VH: B1 VH with M26G, G55Y
VL: B1 VL

fold change of affinity: 1.6 fold
B26: H183/L072 VH G52cA (antibody, name in Kabat numbering, V domains shown)
VH: B1 VH with M26G, G55A
VL: B1 VL

fold change of affinity: 0.6 fold
B27: H183/L072 VH G100hP (antibody, name in Kabat numbering, V domains shown)
VH: B1 VH with M26G, G114P
VL: B1 VL

fold change of affinity: 0.6 fold
B28: H183/L072 VH G26Y (antibody, name in Kabat numbering, V domains shown)
VH: B1 VH with M26Y
VL: B1 VL

fold change of affinity: 0.2 fold
B29: H183/L072 VH G26S (antibody, name in Kabat numbering, V domains shown)
VH: B1 VH with M26S
VL: B1 VL

fold change of affinity: 0.4 fold
B30: H183/L072 VH G26Q (antibody, name in Kabat numbering, V domains shown)
VH: B1 VH with M26Q
VL: B1 VL

fold change of affinity: 0 fold
B31: H183/L072 VH H35E (antibody, name in Kabat numbering, V domains shown)
VH: B1 VH with M26G, H35E
VL: B1 VL

fold change of affinity: 0 fold
B32: H183/L072 VH G26V (antibody, name in Kabat numbering, V domains shown)
VH: B1 VH with M26V
VL: B1 VL

fold change of affinity: 1.4 fold
B33: H183/L072 VH G52cM (antibody, name in Kabat numbering, V domains shown)
VH: B1 VH with M26G, G55M
VL: B1 VL

fold change of affinity: 1.7 fold
B34: H183/L072 VH G52cH (antibody, name in Kabat numbering, V domains shown)
VH: B1 VH with M26G, G55H
VL: B1 VL

fold change of affinity: 1.1 fold
B35: H183/L072 VH G52cI (antibody, name in Kabat numbering, V domains shown)
VH: B1 VH with M26G, G55I
VL: B1 VL

fold change of affinity: 0 fold
B36: H183/L072 VH H35D (antibody, name in Kabat numbering, V domains shown)
VH: B1 VH with M26G, H35D
VL: B1 VL

fold change of affinity: 2.6 fold
B37: H183/L072 VH G100hI (antibody, name in Kabat numbering, V domains shown)
VH: B1 VH with M26G, G114I
VL: B1 VL

fold change of affinity: 0.9 fold
B38: H183/L072 VH G65L (antibody, name in Kabat numbering, V domains shown)
VH: B1 VH with M26G, G68L
VL: B1 VL

fold change of affinity: 1.5 fold
B39: H183/L072 VH G52cW (antibody, name in Kabat numbering, V domains shown)
VH: B1 VH with M26G, G55W
VL: B1 VL

fold change of affinity: 0 fold
B40: H183/L072 VH H35K (antibody, name in Kabat numbering, V domains shown)
VH: B1 VH with M26G, H35K
VL: B1 VL

fold change of affinity: 0 fold
B41: H183/L072 VH H35A (antibody, name in Kabat numbering, V domains shown)
VH: B1 VH with M26G, H35A
VL: B1 VL

fold change of affinity: 2 fold
B42: H183/L072 VH G52cF (antibody, name in Kabat numbering, V domains shown)
VH: B1 VH with M26G, G55F
VL: B1 VL

fold change of affinity: 0.1 fold
B43: H183/L072 VH G26P (antibody, name in Kabat numbering, V domains shown)
VH: B1 VH with M26P
VL: B1 VL

fold change of affinity: 1.9 fold
B44: H183/L072 VH G52cQ (antibody, name in Kabat numbering, V domains shown)
VH: B1 VH with M26G, G55Q
VL: B1 VL

fold change of affinity: 0.6 fold
B45: H183/L072 VH G26W (antibody, name in Kabat numbering, V domains shown)
VH: B1 VH with M26W
VL: B1 VL
